Measured values as given in US20250340658A1 (TWIST BIOSCIENCE, published 2025).
Positions count from the first letter of the chain named. Read-outs that look alike come from different tables or passages of the source. Blank lines part the entries; values can stand above or below the binder they belong to.

Legend:
[1] = molecular target: T1, full length human GLP-1R with N-terminal FLAG tag and C-terminal GFP tag, on CHO cells (human, UniProt P43220 24-463); experiment: flow cytometry, expressing vs parent CHO cells
T1 construct: whole, on cells; the cell line itself is tied to UniProt P43220; also called FLAG-GLP-1R-GFP; CHO-GLP-1R
Description: (§1) GLP-1R IgG clones were tested in a binding assay coupled to flow cytometry analysis as follows: FLAG-GLP-1R-GFP expressing CHO cells (CHO-GLP-1R) and CHO-parent cells were incubated with 100 nM IgG for 1 h on ice, washed three times and incubated with Alexa 647 conjugated goat-anti-human antibody (1:200) (Jackson ImmunoResearch Laboratories, 109-605-044) for 30 min on ice, followed by three washes, centrifuging to pellet the cells between each washing step. All incubations and washes were in buffer containing PBS+1% BSA. […] Cells were analyzed by flow cytometry and hits (a hit is an IgG that specifically binds to CHO-GLP-1R) were identified by measuring the GFP signal against the Alexa 647 signal. Flow cytometry data of binding assays with 100 nM IgG are presented as dot plots. Analyses of binding assays with IgG titrations are presented as binding curves plotting IgG concentrations against MFI (mean fluorescence intensity).

[2] = molecular target: T1, full length human GLP-1R with …; experiment: flow cytometry, expressing vs parent CHO cells; remark: listed apart in the source
Description: as §1

[3] = molecular target: T1, full length human GLP-1R with …; experiment: flow cytometry, expressing minus parent CHO cells
Description: as §1

[4] = molecular target: T1, full length human GLP-1R with …; experiment: flow cytometry, expressing vs parent CHO cells; remark: listed apart in the source
Description: as §1

[5] = molecular target: T1, full length human GLP-1R with …; experiment: flow cytometry titration, CHO GLP1R cells
Description: as §1

[6] = molecular target: T1, full length human GLP-1R with …; experiment: flow cytometry, expressing minus parent CHO cells; remark: listed apart in the source
Description: as §1

[7] = molecular target: T1, full length human GLP-1R with …; experiment: flow cytometry, GLP1R-expressing CHO cells
Description: as §1

[8] = molecular target: T1, full length human GLP-1R with …; experiment: flow cytometry, expressing vs parent CHO cells; remark: listed apart in the source
Description: as §1

[9] = molecular target: T1, full length human GLP-1R with …; experiment: flow cytometry, GLP1R-expressing CHO cells; remark: listed apart in the source
Description: as §1

[10] = molecular target: T1, full length human GLP-1R with …; experiment: flow cytometry titration, CHO GLP1R cells; remark: listed apart in the source
Description: as §1

MFI Ratio [1]: 740 | MFI Ratio [2]: 993 | Subtraction [3]: 224000 | MFI Ratio [4]: 740 | Bmax [5]: 153000 | EC50 [5]: 15.4 nM | Subtraction [6]: 232000 | Median RL1-H of Expressing Singlets [7]: 232000 | MFI Ratio [8]: 993 | Median RL1-H of Expressing Singlets [9]: 224000 | Bmax [10]: 800000 | EC50 [10]: 11.5 nM
B1: GLP1R-3 (antibody, human IgG2, lambda, V domains shown)
VH: QVQLVESGGGVVQPGRSLRLSCAASGFTFSSYGMHWVRQAPGKGLEWVSFISYDESNKYYADSVKGRFTISRDNSKNTLYLQMNSLRAEDTAVYYCAKHMSMQEGAVTGEGQAAKEFIAWLVKGRVRADLVGDAFDVWGQGTLVTVSS
VL: QSVLTQPPSVSAAPGQKVTISCSGSSSNIADNYVSWYQQLPGTAPKLLIYDNNKRPSGIPDRFSGSKSGTSATLGITGLQTGDEADYYCGTWDNYLGAGVFGGGTKLTVLG
notes: full length human IgG2; also called GLP1R01-3

MFI Ratio [1]: 525 | Subtraction [3]: 227000 | MFI Ratio [4]: 525 | Bmax [5]: 1.08e+06 | Median RL1-H of Expressing Singlets [9]: 227000
B2: GLP1R-222-090 (antibody, V domains shown)
VH: B1 VH with T28S, S31D, M34I, S49A, F50L, D54E, E55G, G111K
VL: QSVLTQPPSVSAAPGQKVTISCSGSSSNIADNYVSWYQQLPGTAPKLLIYDNNKRASGIPDRFSGSKSGTSATLGITGLQTGDEADYYCATWDNRLSAGVFGGGTKLTVL
notes: IgG
